Reference: patent US20230250170A1 (Regeneron, published 2023)

T1: pig NPR1 extracellular domain expressed with a C-terminal myc-myc-hexahistidine (pig)
T1 chain: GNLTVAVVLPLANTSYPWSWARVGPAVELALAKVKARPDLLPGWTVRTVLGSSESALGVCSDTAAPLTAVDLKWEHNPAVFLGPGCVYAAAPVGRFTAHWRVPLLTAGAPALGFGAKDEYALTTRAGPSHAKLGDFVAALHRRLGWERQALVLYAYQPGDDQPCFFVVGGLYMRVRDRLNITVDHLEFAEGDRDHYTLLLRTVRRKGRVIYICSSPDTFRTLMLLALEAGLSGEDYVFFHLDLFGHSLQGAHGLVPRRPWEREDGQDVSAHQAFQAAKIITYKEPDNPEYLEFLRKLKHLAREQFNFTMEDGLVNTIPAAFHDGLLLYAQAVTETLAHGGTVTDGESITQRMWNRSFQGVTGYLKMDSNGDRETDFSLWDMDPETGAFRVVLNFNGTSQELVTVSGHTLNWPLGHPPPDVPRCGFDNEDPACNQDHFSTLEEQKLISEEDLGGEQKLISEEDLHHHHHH

T2: dog NPR1 extracellular domain expressed with a C-terminal myc-myc-hexahistidine (dog)
T2 chain: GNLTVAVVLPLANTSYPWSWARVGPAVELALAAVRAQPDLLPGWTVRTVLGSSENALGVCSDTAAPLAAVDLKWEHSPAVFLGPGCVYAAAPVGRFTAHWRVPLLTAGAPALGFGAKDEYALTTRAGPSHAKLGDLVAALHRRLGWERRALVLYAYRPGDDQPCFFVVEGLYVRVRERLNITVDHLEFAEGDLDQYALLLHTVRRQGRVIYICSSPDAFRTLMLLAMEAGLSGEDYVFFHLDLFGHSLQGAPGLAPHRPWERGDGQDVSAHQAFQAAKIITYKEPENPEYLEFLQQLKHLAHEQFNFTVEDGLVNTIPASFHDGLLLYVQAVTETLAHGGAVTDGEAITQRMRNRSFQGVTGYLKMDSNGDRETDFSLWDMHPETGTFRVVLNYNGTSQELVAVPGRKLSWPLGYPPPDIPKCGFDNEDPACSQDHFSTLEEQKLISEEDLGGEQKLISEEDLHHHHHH


Tests used:
[1] = molecular target: T3, mouse NPR1 extracellular domain expressed with a C-terminal myc-myc-hexahistidine (mouse, UniProt P18293 29-469); test: SPR Biacore 8K, mAb captured via anti-hFc, 25 C
T3 construct: also called mNPR1-MMH
Experimental: (§1) The equilibrium dissociation constant (KD) for different NPR1 reagents binding to purified anti-NPR1 monoclonal antibodies (mAbs) were determined using a real-time surface plasmon resonance (SPR) based Biacore 8k biosensor. All binding studies were performed in 10 mM HEPES, 150 mM NaCl, 3 mM EDTA, and 0.05% v/v Surfactant P20, pH 7.4 (HBS-EP) running buffer at 25° C. and 37° C. The Biacore CM5 sensor chip surface was first derivatized by amine coupling with anti-human Fc specific antibody to capture anti-NPR1 mAbs. Binding studies were performed on human NPR1 extracellular domain expressed with a C-terminal myc-myc-hexahistidine (hNPR1-MMH; SEQ ID NO:74), monkey NPR1 extracellular domain expressed with a C-terminal myc-myc-hexahistidine (mfNPR1-MMH; SEQ ID NO:75), mouse NPR1 extracellular domain expressed with a C-terminal myc-myc-hexahistidine (mNPR1-MMH; SEQ ID NO:76), dog NPR1 extracellular domain expressed with a C-terminal myc-myc-hexahistidine (dog_NPR1-MMH; SEQ ID NO:77), pig NPR1 extracellular domain expressed with a C-terminal myc-myc-hexahistidine (pig_NPR1-MMH; SEQ ID NO:78), and hNPR1-MMH+10×hANP.
(§2) Different concentrations (40 nM-0.625 nM, 4-fold serial dilutions) of hNPR1-MMH, mfNPR1-MMH, hNPR1-MMH in the presence of 10-fold concentration of hANP, or a fixed concentration (40 nM) of mNPR1-MMH, dog_NPR1-MMH, pig_NPR1-MMH were prepared in HBS-EP running buffer, and then injected for 150 sec at a flow rate of 30 μL/min, while the dissociation of mAb bound different NPR1 reagents was monitored for 30 minutes in HBS-EP running buffer. At the end of each cycle, the anti-NPR1 mAb capture surface was regenerated using a 12 sec injection of 10 mM phosphoric acid. The association rate (ka) and dissociation rate (kd) were determined by fitting the real-time binding sensorgrams to a 1:1 binding model with mass transport limitation using Biacore insight evaluation software. Binding dissociation equilibrium constant (KD) and dissociative half-life (t½) were calculated from the kinetic rates as: […]

[2] = molecular target: T1, pig NPR1 extracellular domain expressed …; test: SPR Biacore 8K, mAb captured via anti-hFc, 25 C
Experimental: as §1, §2

[3] = molecular target: T2, dog NPR1 extracellular domain expressed …; test: SPR Biacore 8K, mAb captured via anti-hFc, 25 C
Experimental: as §1, §2

[4] = molecular target: T3, mouse NPR1 extracellular domain …; test: SPR Biacore 8K, mAb captured via anti-hFc, 37 C
Experimental: as §1, §2
Target sequence in this assay (P18293 other isoform, or with tags, fused parts or gaps): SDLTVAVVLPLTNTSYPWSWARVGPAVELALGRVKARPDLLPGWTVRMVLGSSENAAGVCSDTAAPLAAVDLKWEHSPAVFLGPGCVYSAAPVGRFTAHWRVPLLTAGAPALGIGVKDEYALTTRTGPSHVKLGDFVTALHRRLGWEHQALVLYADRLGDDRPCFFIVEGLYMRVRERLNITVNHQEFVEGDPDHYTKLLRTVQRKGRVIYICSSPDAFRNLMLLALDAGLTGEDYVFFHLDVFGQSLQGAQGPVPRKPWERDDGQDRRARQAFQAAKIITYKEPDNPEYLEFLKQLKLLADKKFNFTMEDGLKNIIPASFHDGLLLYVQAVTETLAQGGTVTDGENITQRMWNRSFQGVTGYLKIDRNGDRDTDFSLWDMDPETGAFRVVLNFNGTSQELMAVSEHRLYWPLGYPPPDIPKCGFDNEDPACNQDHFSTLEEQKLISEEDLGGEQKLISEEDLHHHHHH

[5] = molecular target: T1, pig NPR1 extracellular domain expressed …; test: SPR Biacore 8K, mAb captured via anti-hFc, 37 C
Experimental: as §1, §2

[6] = molecular target: T2, dog NPR1 extracellular domain expressed …; test: SPR Biacore 8K, mAb captured via anti-hFc, 37 C
Experimental: as §1, §2

[7] = molecular target: T4, monkey (Macaca fascicularis) NPR1 on HEK293/mfNPR1 cells (monkey (Macaca fascicularis)); test: ECL cell-binding immunoassay (MSD), HEK293/mfNPR1, no ligand added
T4 construct: whole, on cells; No ligand added
Experimental: (§3) Cultures of the cell lines described above were rinsed once in 1×PBS buffer without Ca²⁺/Mg²⁺ and incubated for 10 minutes at 37° C. with Enzyme Free Cell Dissociation Solution to detach cells from the flask. The collected cell pellets were washed once with and resuspended in 1×PBS with Ca²⁺/Mg²⁺ and then cells were counted with a Cellometer™ Auto T4 cell counter (Nexcelom Bioscience, Lawrence, Mass.). Approximately 2.0×10⁴ cells per well were seeded onto 96-well carbon electrode plates (Meso Scale Diagnostics, Rockville, Md.) and incubated for 1 hour at 37° C. Nonspecific binding sites were blocked using 2% BSA (w/v) in 1×PBS containing Ca²⁺/Mg²⁺ for 1 h at room temperature. Subsequently, HEK293/hNPR1 and HEK293/mfNPR1 cells were incubated for 0.5 hour at room temperature with 10 nM hANP (Tocris, Minneapolis, Minn.), 100 nM hBNP (Tocris, Minneapolis, Minn.), or sample dilution buffer alone, while HEK293 cells were treated with sample dilution buffer only. Without washing, serial dilutions of anti-NPR1, Comparator 1 or the isotype control antibody, ranging from 1.7 pM to 100 nM, or buffer containing no antibody were added to the cells followed by 1 hour incubation at room temperature. Plates were then washed to remove unbound antibodies, hANP, and hBNP using an AquaMax2000 plate washer with a cell washing head (MDS Analytical Technologies, Sunnyvale, Calif.). The plate-bound antibodies were detected with a SULFO-TAG™-conjugated polyclonal goat anti-human IgG antibody specific for heavy and light chains (Jackson Immunoresearch, West Grove, Pa.) that was incubated with the cells for 1 hour at room temperature.
(§4) After washes, plates were developed with Read Buffer (Meso Scale Diagnostics, Rockville, Md.) according to manufacturer's recommended procedure and luminescent signals were recorded with a SECTOR Imager 600 (Meso Scale Diagnostics, Rockville, Md.). The binding signals in a unit of RLU were analyzed as a function of the antibody concentration and data were fitted with a sigmoidal (four-parameter logistic) dose-response model using R statistical package (open source).

[8] = molecular target: T5, monkey NPR1 on HEK293/mfNPR1 cells in the presence of 10 nM hANP (monkey (Macaca fascicularis); human); test: ECL cell-binding immunoassay (MSD), HEK293/mfNPR1, +10 nM hANP
T5 construct: also called HEK293/mfNPR1 +10 nM hANP
T5 sequence (P01160 124-151): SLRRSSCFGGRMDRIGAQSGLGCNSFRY
Experimental: as §3, §4

[9] = molecular target: T6, monkey NPR1 on HEK293/mfNPR1 cells in the presence of 100 nM hBNP (monkey (Macaca fascicularis); human); test: ECL cell-binding immunoassay (MSD), HEK293/mfNPR1, +100 nM hBNP
T6 construct: also called HEK293/mfNPR1 +100 nM hBNP
T6 sequence (P16860 103-134): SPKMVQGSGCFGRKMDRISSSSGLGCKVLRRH
Experimental: as §3, §4

Binder | 40 nM Ag Bound (RU) [1] | binding result [1] | 40 nM Ag Bound (RU) [2] | 40 nM Ag Bound (RU) [3] | binding result [3] | 40 nM Ag Bound (RU) [4] | 40 nM Ag Bound (RU) [5] | binding result [5] | 40 nM Ag Bound (RU) [6] | EC50 [7] | EC50 [8] | EC50 [9] | Kd [2] | koff [2] | kon [2] | t½ [2] | Kd [5] | koff [5] | kon [5] | t½ [5]
REGN7541 (antibody, human IgG4 S228P, kappa, V domains shown, also called mAb38067) VH: EVQLVESGGGLVQPGGSLRLSCAASGFTFSSYAMSWVRQAPGKGLEWVSTISGSGTNTYYADSVKGRFTISNDNSKNTLYLQMNSLRAEDTAVYYCANYDILTGHSFEYWGQGTLVTVSS VL: AIQMTQSPSSLSASVGDRVTITCRASQGIRNDLGWYQQKPGKAPELLIYAASRLPSGVPLRFSGSGSGTDFTLTISSLQPEDVATYYCLQDYNYPFTFGPGTKVDIKR | 0 RU | no binding (tested: 40 nM) | 0 RU | 0 RU | no binding (tested: 40 nM) | 0 RU | 0 RU | no binding (tested: 40 nM) | 0 RU | 1.4 nM | 2.9 nM | 0.92 nM | – | – | – | – | – | – | – | –
REGN7544 (antibody, human IgG4 S228P, kappa, V domains shown, also called mAb38072) VH: EVQLVESGGGLVQPGGSLRLSCAASGFSFVSYVMGWVRQAPGKGLEWVSSISGSLTNTYYADPVKGRFTISRDNSKNTLYLQMNSLRAEDTAAYYCVTYDILTGHLFDYWGQGTLVTVSS VL: AIQMTQSPSSLSASVGDRVTITCRSSQGIRNDFGWYQQKPGKAPKLLIYAASRLQSGVPSRFSGSGSGTDFTLTINNLQPEDFATYYCLQDYTYPFTFGPGTKVDIKR | 0 RU | no binding (tested: 40 nM) | 2 RU | 0 RU | no binding (tested: 40 nM) | 0 RU | 5 RU | – | 0 RU | 1.7 nM | 4.2 nM | 1.7 nM | 122 nM | 0.00679 s⁻¹ | 55800 M⁻¹ s⁻¹ | 1.7 min | 98.1 nM | 0.00947 s⁻¹ | 96500 M⁻¹ s⁻¹ | 1.2 min
H4H22034 (antibody, human IgG4 S228P, kappa, V domains shown, also called H4H22034N; mAb22034) VH: EVQLLESGGDLVQPGGSLRLSCAASGFTFSDYAMIWVRQTPGKGLEWVSGISGGGGSTDYADSVKGRFTTSRDNVKNAMYLQMNSLRTEDTAVYYCAREDQLPSYHNYYGMDVWGQGTTVTVSS VL: DIQMTQSPSSVSASVGDRVTITCRASQGINNYLAWFQQKPGKAPKSLIYGASSLQSGVPSKFSGSRSGIDFTLTISSLQPEDFATYYCQQYNSYPYTFGQGTKLEIKR | 0 RU | no binding (tested: 40 nM) | 0 RU | 0 RU | no binding (tested: 40 nM) | 0 RU | 0 RU | no binding (tested: 40 nM) | 0 RU | 0.33 nM | 0.67 nM | 0.42 nM | – | – | – | – | – | – | – | –
REGN7548 (antibody, human IgG4 S228P, kappa, V domains shown, also called mAb38090) VH: QVQLVQSGAEVKKPGASVKVSCKASGYTFTSYYIHWVRQAPGQGLEWMGIISPSDGYTSYAQNFQGRVTMTRDTSTNTVYMDLSSLRSEDTAMFYCARNDPLTTVALDYWGQGTLVTVSS VL: AIQMTQSPSSLSASVGDRVTITCRASQGIRYDLGWFQQKPGKAPKLLIHAASSLQSGVPSRFSGSGSGTDFTLTISSLQPEDFATYYCLQDYNYPFTFGQGTKLEIKR | 0 RU | no binding (tested: 40 nM) | 11 RU | 0 RU | no binding (tested: 40 nM) | 0 RU | 14 RU | – | 0 RU | 0.56 nM | 1.2 nM | 0.56 nM | 35.8 nM | 0.00427 s⁻¹ | 119000 M⁻¹ s⁻¹ | 2.7 min | 42.1 nM | 0.00927 s⁻¹ | 220000 M⁻¹ s⁻¹ | 1.2 min
